The results in this text go back to the supplement of paper PMC5998384.

Series [1] concerns HeLa Kyoto. The series is described as follows: solubility in G1/S (NP-40 vs SDS abundance) (log2 ratio); higher = more soluble. To be noted: cell cycle stage: G1/S.
For series [2], the system named is HeLa Kyoto. The series is described as follows: melting temperature (median over replicates), in situ; higher = more thermally stable.
Series [3] relates to HeLa Kyoto. The series can be described thus: thermal stability score vs G1/S (z-score of summed log2 fold changes over temperatures); higher = more thermally stable than in G1/S.
The subject of series [4] is HeLa Kyoto. The series can be described thus: solubility change mitosis vs G1/S (difference of NP-40 vs SDS log2 ratios) (log2 ratio difference); higher = more soluble in mitosis.
[5] abbreviates: cell cycle stage: early G1 (4.5 h after nocodazole release).
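For melting temperature (median over replicates), in situ in this document: HeLa Kyoto cells synchronized by double thymidine or nocodazole block, proteins quantified by TMT10plex mass spectrometry, three independent biological replicates.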
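For solubility change mitosis vs G1/S (difference of NP-40 vs SDS log2 ratios) in this document: synchronized HeLa Kyoto cells (double thymidine block for G1/S, nocodazole release for mitosis), protein amounts in NP-40 versus SDS lysates quantified by mass spectrometry, three biological replicates.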
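For solubility in G1/S (NP-40 vs SDS abundance) in this document: HeLa Kyoto cells arrested at G1/S by double thymidine block, proteins quantified by TMT10plex mass spectrometry in mild NP-40 versus SDS extracts, three biological replicates.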
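For thermal stability score vs G1/S (z-score of summed log2 fold changes over temperatures) in this document: synchronized HeLa Kyoto cells, proteins quantified by TMT10plex mass spectrometry, three biological replicates, mitosis taken 0.5 h after nocodazole release, G1/S directly after double thymidine block.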

Turning to “MACGFRRAIACQLSRVLNLPPENLITSISAVPISQKEEVADFQLSVDSLLEKDNDHSRPDIQVQAKRLAEKLRCDTVVSEISTGQRTVNFKINRELLTKTVLQQVIEDGSKYGLKSELFSGLPQKKIVVEFSSPNVAKKFHVGHLRSTIIGNFIANLKEALGHQVIRINYLGDWGMQFGLLGTGFQLFGYEEKLQSNPLQHLFEVYVQVNKEAADDKSVAKAAQEFFQRLELGDVQALSLWQKFRDLSIEEYIRVYKRLGVYFDEYSGESFYREKSQEVLKLLESKGLLLKTIKGTAVVDLSGNGDPSSICTVMRSDGTSLYATRDLAAAIDRMDKYNFDTMIYVTDKGQKKHFQQVFQMLKIMGYDWAERCQHVPFGVVQGMKTRRGDVTFLEDVLNEIQLRMLQNMASIKTTKELKNPQETAERVGLAALIIQDFKGLLLSDYKFSWDRVFQSRGDTGVFLQYTHARLHSLEETFGCGYLNDFNTACLQEPQSVSILQHLLRFDEVLYKSSQDFQPRHIVSYLLTLSHLAAVAHKTLQIKDSPPEVAGARLHLFKAVRSVLANGMKLLGITPVCRM [RARS2]”, in the series with HeLa Kyoto [1], the “solubility in G1/S (log2)” value was -0.144. Moreover, the melting temperature in the series on HeLa Kyoto [2] (cell cycle stage: G1/S) was determined as 51.7 °C; with HeLa Kyoto [2] (cell cycle stage: mitosis), 50.8 °C. In addition, the thermal stability score with HeLa Kyoto [3] (setting [5]) and in the series with HeLa Kyoto [3] (cell cycle stage: mitosis) was -0.261 each time. Moreover, the “solubility change mitosis (log2)” value in the series on HeLa Kyoto [4] was -0.141.

In the case of “MAAAAASLRGVVLGPRGAGLPGARARGLLCSARPGQLPLRTPQAVALSSKSGLSRGRKVMLSALGMLAAGGAGLAMALHSAVSASDLELHPPSYPWSHRGLLSSLDHTSIRRGFQVYKQVCASCHSMDFVAYRHLVGVCYTEDEAKELAAEVEVQDGPNEDGEMFMRPGKLFDYFPKPYPNSEAARAANNGALPPDLSYIVRARHGGEDYVFSLLTGYCEPPTGVSLREGLYFNPYFPGQAIAMAPPIYTDVLEFDDGTPATMSQIAKDVCTFLRWASEPEHDHRKRMGLKMLMMMALLVPLVYTIKRHKWSVLKSRKLAYRPPK [CYC1]”, the “solubility in G1/S (log2)” value with HeLa Kyoto [1] was found to be 0.869. The results for the melting temperature with HeLa Kyoto [2] (cell cycle stage: G1/S) and in the series on HeLa Kyoto [2] (cell cycle stage: mitosis) were 54.5 °C and 53.5 °C, respectively. Also, the results for the thermal stability score in the series on HeLa Kyoto [3] (setting [5]) and in the series with HeLa Kyoto [3] (cell cycle stage: mitosis) were -5.79 and -6.58, respectively. Also, in the series on HeLa Kyoto [4], the “solubility change mitosis (log2)” value was -0.106.

“MLRSGPASGPSVPTGRAMPSRRVARPPAAPELGALGSPDLSSLSLAVSRSTDELEIIDEYIKENGFGLDGGQPGPGEGLPRLVSRGAASLSTVTLGPVAPPATPPPWGCPLGRLVSPAPGPGPQPHLVITEQPKQRGMRFRYECEGRSAGSILGESSTEASKTLPAIELRDCGGLREVEVTACLVWKDWPHRVHPHSLVGKDCTDGICRVRLRPHVSPRHSFNNLGIQCVRKKEIEAAIERKIQLGIDPYNAGSLKNHQEVDMNVVRICFQASYRDQQGQMRRMDPVLSEPVYDKKSTNTSELRICRINKESGPCTGGEELYLLCDKVQKEDISVVFSRASWEGRADFSQADVHRQIAIVFKTPPYEDLEIVEPVTVNVFLQRLTDGVCSEPLPFTYLPRDHDSYGVDKKRKRGMPDVLGELNSSDPHGIESKRRKKKPAILDHFLPNHGSGPFLPPSALLPDPDFFSGTVSLPGLEPPGGPDLLDDGFAYDPTAPTLFTMLDLLPPAPPHASAVVCSGGAGAVVGETPGPEPLTLDSYQAPGPGDGGTASLVGSNMFPNHYREAAFGGGLLSPGPEAT [RELB]”: the “solubility in G1/S (log2)” value with HeLa Kyoto [1] was -0.0253. Further, in the series with HeLa Kyoto [2] (cell cycle stage: mitosis), the melting temperature amounted to 50.1 °C. Also, the thermal stability score in the series on HeLa Kyoto [3] (setting [5]) was 0.0562; in the series with HeLa Kyoto [3] (cell cycle stage: mitosis) it was 0.606. Moreover, the “solubility change mitosis (log2)” value with HeLa Kyoto [4] is -0.12.

On to MGST3, for which the “solubility in G1/S (log2)” value in the series on HeLa Kyoto [1] was -0.272. The melting temperature was determined as 56.3 °C with HeLa Kyoto [2] (cell cycle stage: G1/S) and 55.7 °C in the series on HeLa Kyoto [2] (cell cycle stage: mitosis). In addition, the thermal stability score in the series with HeLa Kyoto [3] (setting [5]) is -2.44; in the series with HeLa Kyoto [3] (cell cycle stage: mitosis) it was -4.93. Further, the “solubility change mitosis (log2)” value in the series with HeLa Kyoto [4] came to 0.0779.

“MAANYSSTSTRREHVKVKTSSQPGFLERLSETSGGMFVGLMAFLLSFYLIFTNEGRALKTATSLAEGLSLVVSPDSIHSVAPENEGRLVHIIGALRTSKLLSDPNYGVHLPAVKLRRHVEMYQWVETEESREYTEDGQVKKETRYSYNTEWRSEIINSKNFDREIGHKNPSAMAVESFMATAPFVQIGRFFLSSGLIDKVDNFKSLSLSKLEDPHVDIIRRGDFFYHSENPKYPEVGDLRVSFSYAGLSGDDPDLGPAHVVTVIARQRGDQLVPFSTKSGDTLLLLHHGDFSAEEVFHRELRSNSMKTWGLRAAGWMAMFMGLNLMTRILYTLVDWFPVFRDLVNIGLKAFAFCVATSLTLLTVAAGWLFYRPLWALLIAGLALVPILVARTRVPAKKLE [TMEM43]”: in the series on HeLa Kyoto [1], the “solubility in G1/S (log2)” value was -0.206. Also, the melting temperature stood at 53.5 °C in the series on HeLa Kyoto [2] (cell cycle stage: G1/S) and 53.1 °C in the series with HeLa Kyoto [2] (cell cycle stage: mitosis). Moreover, the thermal stability score with HeLa Kyoto [3] (setting [5]) worked out at 3.06; in the series with HeLa Kyoto [3] (cell cycle stage: mitosis), 4.18. The “solubility change mitosis (log2)” value with HeLa Kyoto [4] is -0.244.

On to “MSGLDGVKRTTPLQTHSIIISDQVPSDQDAHQYLRLRDQSEATQVMAEPGEGGSETVALPPPPPSEEGGVPQDAAGRGGTPQIRVVGGRGHVAIKAGQEEGQPPAEGLAAASVVMAADRSLKKGVQGGEKALEICGAQRSASELTAGAEAEAEEVKTGKCATVSAAVAERESAEVVKEGLAEKEVMEEQMEVEEQPPEGEEIEVAEEDRLEEEAREEEGPWPLHEALRMDPLEAIQLELDTVNAQADRAFQQLEHKFGRMRRHYLERRNYIIQNIPGFWMTAFRNHPQLSAMIRGQDAEMLRYITNLEVKELRHPRTGCKFKFFFRRNPYFRNKLIVKEYEVRSSGRVVSLSTPIIWRRGHEPQSFIRRNQDLICSFFTWFSDHSLPESDKIAEIIKEDLWPNPLQYYLLREGVRRARRRPLREPVEIPRPFGFQSG [TSPYL1]”, for which the “solubility in G1/S (log2)” value in the series on HeLa Kyoto [1] was -0.443. Moreover, the melting temperature in the series with HeLa Kyoto [2] (cell cycle stage: G1/S) came out at 51.2 °C; with HeLa Kyoto [2] (cell cycle stage: mitosis) it was 49.9 °C. In addition, in the series with HeLa Kyoto [4], the “solubility change mitosis (log2)” value was 0.141.

Take “MTELAGASSSCCHRPAGRGAMQSVLHHFQRLRGREGGSHFINTSSPRGEAKMSITSDEVNFLVYRYLQESGFSHSAFTFGIESHISQSNINGTLVPPAALISILQKGLQYVEAEISINEDGTVFDGRPIESLSLIDAVMPDVVQTRQQAFREKLAQQQASAAAAAAAATAAATAATTTSAGVSHQNPSKNREATVNGEENRAHSVNNHAKPMEIDGEVEIPSSKATVLRGHESEVFICAWNPVSDLLASGSGDSTARIWNLNENSNGGSTQLVLRHCIREGGHDVPSNKDVTSLDWNTNGTLLATGSYDGFARIWTEDGNLASTLGQHKGPIFALKWNRKGNYILSAGVDKTTIIWDAHTGEAKQQFPFHSAPALDVDWQNNTTFASCSTDMCIHVCRLGCDRPVKTFQGHTNEVNAIKWDPSGMLLASCSDDMTLKIWSMKQEVCIHDLQAHNKEIYTIKWSPTGPATSNPNSNIMLASASFDSTVRLWDIERGVCTHTLTKHQEPVYSVAFSPDGKYLASGSFDKCVHIWNTQSGNLVHSYRGTGGIFEVCWNARGDKVGASASDGSVCVLDLRK [TBL1X]”: in the series on HeLa Kyoto [1], the “solubility in G1/S (log2)” value is -0.043. Besides, the melting temperature in the series with HeLa Kyoto [2] (cell cycle stage: mitosis) was 52.5 °C. In addition, the “solubility change mitosis (log2)” value with HeLa Kyoto [4] is -0.0781.
